Tests used:
[1] = target: Flag-hAPRIL (human); assay: SEC; Superdex S200 Increase HR 10/30, PBS 10 ug/ml BSA, 0.7 ml/min; proteins alone or Flag-ligand with a 20-fold mass excess of atacicept; fractions analysed by Western blot; complexes of fractions 10 and 11 concentrated and run again
[2] = target: endogenous BAFF (human serum) (human (endogenous in serum)); assay: SEC; 300 ul serum of an atacicept-treated SLE patient (pre-dose, 4 weeks of treatment, 12 weeks after treatment end) fractionated in PBS; BAFF ELISA and non-reducing anti-TACI Western blot of the fractions

Row | stoichiometry N [1] | stoichiometry N [2] | Substance
1 | 3 | – | Flag-hAPRIL (ligand)
2 | – | 3 | endogenous BAFF (human serum) (ligand)

— publication PMC9756848
